Assay results taken from patent US20070087405.

Target: β subunit of human prolyl 4-hydroxylase, P07237
Sequence (P07237 18-508): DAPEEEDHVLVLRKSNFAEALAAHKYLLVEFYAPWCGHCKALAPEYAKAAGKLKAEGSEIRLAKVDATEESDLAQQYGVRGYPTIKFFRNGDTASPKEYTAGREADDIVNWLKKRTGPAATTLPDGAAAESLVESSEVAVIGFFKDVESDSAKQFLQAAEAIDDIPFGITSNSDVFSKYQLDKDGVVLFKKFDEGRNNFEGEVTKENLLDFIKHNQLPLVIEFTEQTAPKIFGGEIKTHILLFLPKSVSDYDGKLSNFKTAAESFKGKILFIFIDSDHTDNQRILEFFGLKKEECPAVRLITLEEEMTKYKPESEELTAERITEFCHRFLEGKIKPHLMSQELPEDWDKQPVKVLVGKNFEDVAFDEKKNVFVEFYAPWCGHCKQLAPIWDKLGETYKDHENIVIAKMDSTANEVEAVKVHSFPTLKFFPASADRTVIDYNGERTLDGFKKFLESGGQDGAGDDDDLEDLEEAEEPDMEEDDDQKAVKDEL

B1: α subunit of human prolyl 4-hydroxylase (protein)
chain: HPGFFTSIGQMTDLIHTEKDLVTSLKDYIKAEEDKLEQIKKWAEKLDRLTSTATKDPEGFVGHPVNAFKLMKRLNTEWSELENLVLKDMSDGFISNLTIQRQYFPNDEDQVGAAKALLRLQDTYNLDTDTISKGNLPGVKHKSFLTAEDCFELGKVAYTEADYYHTELWMEQALRQLDEGEISTIDKVSVLDYLSYAVYQQGDLDKALLLTKKLLELDPEHQRANGNLKYFEYIMAKEKDVNKSASDDQSDQKTTPKKKGVAVDYLPERQKYEMLCRGEGIKMTPRRQKKLFCRYHDGNRNPKFILAPAKQEDEWDKPRIIRFHDIISDAEIEIVKDLAKPRLRRATISNPITGDLETVHYRISKSAWLSGYENPVVSRINMRIQDLTGLDVSTAEELQVANYGVGGQYEPHFDFARKDEPDAFKELGTGNRIATWLFYMSDVSAGGATVFPEVGASVWPKKGTAVFWYNLFASGEGDYSTRHAACPVLVGNKWVSNKWLHERGQEFRRPCTLSELE
- prolyl 4-hydroxylase activity (decarboxylation of 2-oxo[1-14C]glutarate) and trimeric assembly of mC21: These data suggest that the P4α and P4β are capable of assembling into an active α2β2 tetramer in the Drosophila expression system
